B1: Lst8 (natural protein, S. cerevisiae, UniProt P41318 1-303, looked up)
chain: MSVILVSAGYDHTIRFWEALTGVCSRTIQHSDSQVNRLEITNDKKLLATAGHQNVRLYDIRTTNPNPVASFEGHRGNVTSVSFQQDNRWMVTSSEDGTIKVWDVRSPSIPRNYKHNAPVNEVVIHPNQGELISCDRDGNIRIWDLGENQCTHQLTPEDDTSLQSLSMASDGSMLAAANTKGNCYVWEMPNHTDASHLKPVTKFRAHSTYITRILLSSDVKHLATCSADHTARVWSIDDDFKLETTLDGHQRWVWDCAFSADSAYLVTASSDHYVRLWDLSTREIVRQYGGHHKGAVCVALNDV
notes: Lst8 of S. cerevisiae, composed entirely of WD40 repeats (beta propeller); Two copies stand in the TORC2 complex; source: endogenous, S. cerevisiae cell extract (Bit61-TAP strain lacking Bit2); purified as part of TORC2 on IgG-coated dynabeads, released with TEV protease
B2: Avo2 (natural protein, S. cerevisiae, UniProt Q04749 1-426, looked up)
chain: MLKEPSVRLREAIIEGNLLIVKRLLRRNPDLLTNIDSENGWSSLHYASYHGRYLICVYLIQLGHDKHELIKTFKGNTCVHLALMKGHEQTLHLLLQQFPRFINHRGENGRAPIHIACMNDYYQCLSLLIGVGADLWVMDTNGDTPLHVCLEYGSISCMKMLLNEGEVSLDDNVRDKGNWKPIDVAQTFEVGNIYSKVLKEVKKKGPPLGAGKKPSSFRTPILNAKATFEDGPSPVLSMNSPYSLYSNNSPLPVLPRRISTHTTSGNGGNRRSSITNPVFNPRKPTLSTDSFSSSSNSSSRLRVNSINVKTPVGVSPKKELVSESVRHSATPTSPHNNIALINRYLLPNKSNDNVRGDSQTATINDDGGGGNGGDATIGMGLRKDPDDENENKYKIKVNNGEPRRRVSLLNIPISKLRNSNNTRAED
notes: Avo2 of S. cerevisiae; N-terminal five ankyrin repeats (residues 4-171; modelled aa 4-163); Only the ankyrin repeats are modelled in the map; source: endogenous, S. cerevisiae cell extract (Bit61-TAP strain lacking Bit2); purified as part of TORC2 on IgG-coated dynabeads, released with TEV protease
B3: Bit61-TAP (natural protein, S. cerevisiae, UniProt P47041 1-543, looked up)
chain: MTAEDILLRERTSTTTQRPVNSEQYLNVQLATAPVKNFQTTSEISRQTLVDTSNDDVYSIKNLKGSRNPISPSVSNVGFQSIFHTVDHPRSKVSVASNHSLRSNDNASAATSKSGSSQIGESHSVDTVECSNNLSKKLSSDAISITQKSLHSTPSGRYMKGKASGFFNRRNRAHTTISSDPASFLTDSSTLHNSSHSFRNVIKNFFQNKSHRHIGQDAIEPAIPNSLSKFLHSSYGRHKSPSQFIHTNAGQLVDSGTSVYSLNVNPSGVNPNTIVEDPLSGTDPASPNPVSMLHDLLRNLPSLEANYKHFNSQELTTLTNNIWNIFCSNVAELFRTQRIWKLRAKIENFNEVLEFYCILKTDPRVTHSGMNRIISDLKEFLVSSLYNLENQIVFNYSNEDTINNALKRLGVIWRIFYQEVYYDLAAVLLPLDQSIREDGNSTVLKSGNESRTHINGNYSIGFLLLMCFRDSIVLPCYENFVNSNDGISKSFQLYIFNQEEESNVTETDKLTLLQCFGILSTIQSNDRNQRIIEELLAGIRMSI
notes: Bit61 of S. cerevisiae (ortholog of Protor), subunit of TORC2; The chain was captured by the protein A part of the TAP tag and set free with TEV protease; also called TAP-tagged Bit61; source: S. cerevisiae Bit61-TAP expressing strain lacking Bit2, cell extract; captured on IgG-coated dynabeads, released with TEV protease

Common to all, as to experiment: cryo-EM structure; TORC2 purified from S. cerevisiae extract by protein-A affinity purification of Bit61-TAP (IgG-coated dynabeads; 50 mM HEPES pH 7.5, 0.2 mM CHAPS, 300 mM KCl, 0.5 mM DTT wash; TEV release); single-particle cryo-EM, C2 symmetry, 7.9 Å overall; homology models fitted
The target in one assay is Tor2 (S. cerevisiae) (UniProt P32600).
The assay “Bit61-TAP” concerns the target B3. The settings on record: both partners purified.
A further assay addresses T1, Avo1 (S. cerevisiae, UniProt Q08236 1-1176).
T1 construct: Avo1 of S. cerevisiae (ortholog of hSin1); CRIM domain (residues 647-792 in the model; aa 638-786 in the methods), PH domain (aa 1076-1176); Poorly resolved in the map; only a homology model of the CRIM domain was fitted at a low contour level; source: endogenous, S. cerevisiae cell extract (Bit61-TAP strain lacking Bit2); purified as part of TORC2 on IgG-coated dynabeads, released with TEV …
T1 sequence (looked up): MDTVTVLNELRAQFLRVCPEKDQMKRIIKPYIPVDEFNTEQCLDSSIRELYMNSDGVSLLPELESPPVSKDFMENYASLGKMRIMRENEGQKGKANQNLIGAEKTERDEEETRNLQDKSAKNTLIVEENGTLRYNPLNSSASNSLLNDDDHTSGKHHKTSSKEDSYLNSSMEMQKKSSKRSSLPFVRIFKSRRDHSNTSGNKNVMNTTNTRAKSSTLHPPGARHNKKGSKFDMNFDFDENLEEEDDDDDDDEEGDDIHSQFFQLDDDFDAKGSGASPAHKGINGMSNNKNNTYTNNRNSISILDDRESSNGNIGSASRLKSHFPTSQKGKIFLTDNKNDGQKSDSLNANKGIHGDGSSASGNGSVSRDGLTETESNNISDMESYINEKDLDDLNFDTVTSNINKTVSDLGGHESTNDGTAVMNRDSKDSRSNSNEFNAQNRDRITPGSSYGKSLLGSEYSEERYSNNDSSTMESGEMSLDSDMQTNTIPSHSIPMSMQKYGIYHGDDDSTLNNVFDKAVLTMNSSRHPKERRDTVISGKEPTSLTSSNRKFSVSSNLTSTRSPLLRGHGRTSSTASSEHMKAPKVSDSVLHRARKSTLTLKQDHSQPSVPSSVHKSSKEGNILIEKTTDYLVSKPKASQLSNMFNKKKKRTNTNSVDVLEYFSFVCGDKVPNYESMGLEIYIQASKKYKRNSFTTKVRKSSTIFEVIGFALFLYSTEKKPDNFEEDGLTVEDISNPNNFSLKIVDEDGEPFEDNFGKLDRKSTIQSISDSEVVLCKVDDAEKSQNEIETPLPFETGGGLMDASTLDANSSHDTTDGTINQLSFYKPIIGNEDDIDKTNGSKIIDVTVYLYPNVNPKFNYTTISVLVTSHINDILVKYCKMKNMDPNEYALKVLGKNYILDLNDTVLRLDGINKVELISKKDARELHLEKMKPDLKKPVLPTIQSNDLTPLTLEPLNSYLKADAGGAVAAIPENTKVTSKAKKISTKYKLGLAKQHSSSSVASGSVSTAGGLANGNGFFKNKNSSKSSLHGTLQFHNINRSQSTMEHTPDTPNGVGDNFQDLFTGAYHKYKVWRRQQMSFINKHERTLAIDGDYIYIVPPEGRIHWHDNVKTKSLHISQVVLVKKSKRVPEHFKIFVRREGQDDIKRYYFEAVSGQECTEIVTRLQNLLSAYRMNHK
The note with it: both partners purified.

The target in another assay is T2, Tor2 (S. cerevisiae, UniProt P32600 1-2474).
T2 construct: Tor2, Ser/Thr protein kinase of S. cerevisiae TORC2; HEAT repeats (spiral, bridge), FAT, FRB, kinase and FATC domains; Two copies stand in the TORC2 complex; The model in the map is a homology model built on the K. marxianus Tor-Lst8 structure; also called Sc Tor2; S. cerevisiae Tor2; source: endogenous, S. cerevisiae cell extract (Bit61-TAP strain lacking Bit2); purified as part of TORC2 on …
The note with it: both partners purified.

Another assay addresses T3, Avo3 (S. cerevisiae, UniProt P40061 1-1430).
T3 construct: Avo3 of S. cerevisiae (ortholog of Rictor); armadillo-like helical domain in its middle part; Only 17 individual helices are modelled; they are not tied to residue numbers in the text; source: endogenous, S. cerevisiae cell extract (Bit61-TAP strain lacking Bit2); purified as part of TORC2 on IgG-coated dynabeads, released with TEV protease
T3 sequence (looked up): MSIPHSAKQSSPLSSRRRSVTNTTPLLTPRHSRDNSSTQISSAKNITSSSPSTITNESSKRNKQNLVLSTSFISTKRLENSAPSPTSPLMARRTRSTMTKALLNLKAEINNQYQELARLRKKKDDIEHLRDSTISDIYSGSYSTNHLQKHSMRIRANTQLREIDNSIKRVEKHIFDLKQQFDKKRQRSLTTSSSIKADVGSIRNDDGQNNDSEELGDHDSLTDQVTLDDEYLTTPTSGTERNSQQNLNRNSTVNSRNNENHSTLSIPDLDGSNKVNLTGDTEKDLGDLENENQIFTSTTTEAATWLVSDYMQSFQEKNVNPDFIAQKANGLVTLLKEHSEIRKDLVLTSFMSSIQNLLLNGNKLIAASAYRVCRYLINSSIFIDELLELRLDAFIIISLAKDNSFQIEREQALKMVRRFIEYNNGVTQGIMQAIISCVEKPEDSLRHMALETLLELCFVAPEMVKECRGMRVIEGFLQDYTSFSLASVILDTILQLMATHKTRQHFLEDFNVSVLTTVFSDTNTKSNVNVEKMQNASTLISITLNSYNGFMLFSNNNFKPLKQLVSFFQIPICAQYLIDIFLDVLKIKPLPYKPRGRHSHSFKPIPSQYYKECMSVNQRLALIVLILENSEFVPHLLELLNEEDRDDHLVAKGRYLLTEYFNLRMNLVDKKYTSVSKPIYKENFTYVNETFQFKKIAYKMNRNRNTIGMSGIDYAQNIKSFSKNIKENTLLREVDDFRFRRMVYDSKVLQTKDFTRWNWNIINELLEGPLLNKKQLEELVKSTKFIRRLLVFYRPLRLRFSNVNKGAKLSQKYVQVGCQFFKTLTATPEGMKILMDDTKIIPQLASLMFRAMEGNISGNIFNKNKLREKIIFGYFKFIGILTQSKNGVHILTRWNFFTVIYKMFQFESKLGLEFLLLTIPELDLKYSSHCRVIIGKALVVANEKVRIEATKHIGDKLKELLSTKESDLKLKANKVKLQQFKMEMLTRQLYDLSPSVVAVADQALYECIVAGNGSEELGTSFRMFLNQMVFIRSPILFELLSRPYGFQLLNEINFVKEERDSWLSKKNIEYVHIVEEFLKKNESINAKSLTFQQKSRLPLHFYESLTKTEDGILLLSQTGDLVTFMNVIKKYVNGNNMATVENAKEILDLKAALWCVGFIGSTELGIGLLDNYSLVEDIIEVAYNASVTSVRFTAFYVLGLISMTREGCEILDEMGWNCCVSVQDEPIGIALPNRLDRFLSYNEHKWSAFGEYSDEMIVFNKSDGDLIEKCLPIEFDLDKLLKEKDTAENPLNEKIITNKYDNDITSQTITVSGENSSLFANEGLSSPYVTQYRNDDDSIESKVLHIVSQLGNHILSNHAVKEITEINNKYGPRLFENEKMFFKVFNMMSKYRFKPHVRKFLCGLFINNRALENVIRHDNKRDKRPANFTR
The settings on record: both partners purified.

Experimental findings from publication PMC5700991, “Cryo-EM structure of Saccharomyces cerevisiae target of rapamycin complex 2” (Nature Communications, 2017) are described below.

The stoichiometry N is the number of molecules, sites or subunits per partner or assembly.

T2 sequence (P32600 whole entry, the tested form may be a part): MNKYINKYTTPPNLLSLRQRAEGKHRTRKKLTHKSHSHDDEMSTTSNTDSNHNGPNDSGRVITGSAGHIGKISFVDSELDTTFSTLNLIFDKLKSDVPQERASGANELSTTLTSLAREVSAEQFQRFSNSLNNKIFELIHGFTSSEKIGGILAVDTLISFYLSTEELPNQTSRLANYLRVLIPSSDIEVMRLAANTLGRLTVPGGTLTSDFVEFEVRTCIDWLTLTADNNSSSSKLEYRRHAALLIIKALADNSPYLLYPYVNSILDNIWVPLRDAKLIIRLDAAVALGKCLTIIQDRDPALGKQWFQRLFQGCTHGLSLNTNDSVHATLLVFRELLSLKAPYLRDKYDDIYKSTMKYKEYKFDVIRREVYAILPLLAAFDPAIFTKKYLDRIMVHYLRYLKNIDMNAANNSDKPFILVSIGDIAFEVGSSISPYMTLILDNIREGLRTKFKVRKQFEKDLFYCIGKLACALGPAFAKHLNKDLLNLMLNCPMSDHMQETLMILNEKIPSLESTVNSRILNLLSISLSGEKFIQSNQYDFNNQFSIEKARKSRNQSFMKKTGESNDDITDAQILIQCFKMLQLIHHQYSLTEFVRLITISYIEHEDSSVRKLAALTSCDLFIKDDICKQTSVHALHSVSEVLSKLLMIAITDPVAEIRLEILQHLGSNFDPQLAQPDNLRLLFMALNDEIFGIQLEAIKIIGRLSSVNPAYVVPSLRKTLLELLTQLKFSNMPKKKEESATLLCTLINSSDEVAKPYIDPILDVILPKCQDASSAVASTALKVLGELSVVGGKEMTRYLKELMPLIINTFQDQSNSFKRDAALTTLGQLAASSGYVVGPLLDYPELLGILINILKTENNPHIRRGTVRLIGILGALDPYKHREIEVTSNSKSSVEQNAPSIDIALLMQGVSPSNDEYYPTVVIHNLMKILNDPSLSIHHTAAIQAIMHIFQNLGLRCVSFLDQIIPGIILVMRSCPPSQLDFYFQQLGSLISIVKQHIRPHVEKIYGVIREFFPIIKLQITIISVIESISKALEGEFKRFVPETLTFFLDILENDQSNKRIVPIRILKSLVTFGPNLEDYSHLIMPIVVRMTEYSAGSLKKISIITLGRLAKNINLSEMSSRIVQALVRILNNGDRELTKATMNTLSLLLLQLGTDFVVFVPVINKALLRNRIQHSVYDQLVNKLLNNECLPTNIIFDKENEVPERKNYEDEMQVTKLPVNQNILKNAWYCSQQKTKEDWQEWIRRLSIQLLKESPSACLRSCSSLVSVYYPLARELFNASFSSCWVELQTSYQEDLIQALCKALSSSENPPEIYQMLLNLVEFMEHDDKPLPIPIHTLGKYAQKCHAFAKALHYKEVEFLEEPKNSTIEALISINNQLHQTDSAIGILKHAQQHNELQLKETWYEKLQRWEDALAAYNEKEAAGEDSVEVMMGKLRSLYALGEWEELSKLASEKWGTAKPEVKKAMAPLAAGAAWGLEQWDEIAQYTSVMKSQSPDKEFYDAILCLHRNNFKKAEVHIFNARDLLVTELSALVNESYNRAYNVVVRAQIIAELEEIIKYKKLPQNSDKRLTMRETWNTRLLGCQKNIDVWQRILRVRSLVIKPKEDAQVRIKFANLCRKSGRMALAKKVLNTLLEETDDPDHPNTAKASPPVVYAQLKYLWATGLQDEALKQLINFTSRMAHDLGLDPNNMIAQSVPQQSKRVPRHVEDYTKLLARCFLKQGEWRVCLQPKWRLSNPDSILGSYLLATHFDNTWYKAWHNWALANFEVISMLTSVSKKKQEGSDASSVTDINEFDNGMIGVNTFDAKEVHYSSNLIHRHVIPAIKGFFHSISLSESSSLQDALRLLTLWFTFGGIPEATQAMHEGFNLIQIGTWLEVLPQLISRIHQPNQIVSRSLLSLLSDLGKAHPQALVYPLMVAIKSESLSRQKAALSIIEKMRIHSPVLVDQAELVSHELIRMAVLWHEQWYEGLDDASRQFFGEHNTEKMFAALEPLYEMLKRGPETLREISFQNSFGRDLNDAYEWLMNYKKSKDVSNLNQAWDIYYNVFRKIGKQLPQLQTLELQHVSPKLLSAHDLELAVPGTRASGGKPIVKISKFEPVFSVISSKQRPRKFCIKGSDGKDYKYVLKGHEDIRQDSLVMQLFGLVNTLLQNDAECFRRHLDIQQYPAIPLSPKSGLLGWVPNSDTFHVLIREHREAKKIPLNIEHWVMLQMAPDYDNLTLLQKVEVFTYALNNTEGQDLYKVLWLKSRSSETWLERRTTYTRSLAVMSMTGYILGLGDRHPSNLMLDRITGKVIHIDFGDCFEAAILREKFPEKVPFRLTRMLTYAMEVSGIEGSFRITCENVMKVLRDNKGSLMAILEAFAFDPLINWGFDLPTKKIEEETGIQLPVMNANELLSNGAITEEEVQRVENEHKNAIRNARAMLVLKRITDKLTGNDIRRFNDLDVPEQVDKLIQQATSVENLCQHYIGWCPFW

Tor2, P32600 1-2474 showed a stoichiometry N with Tor2 (S. cerevisiae) of 2.
Turning to B1, the binding result with Bit61-TAP, with Avo1 and with Tor2 was “binds” each time.
Regarding B2, the binding result with Bit61-TAP and with Tor2 was “binds” each time.
In the case of B3, the binding result in the assay with Avo3, with Avo1 and with Tor2 was “binds” each time.
